Data as given in the DeepSol protein solubility set.

Assay: soluble on expression in E. coli; label from the status in PepcDB or PDB records

Sequence	soluble on expression in E. coli
MSLNIAVMEKGAAQPGDRLLSDVSLPALVIHNQALEHNIRWMQQFVTDSGAELAPHGKTSMVPALFRRQLDAGAWGMTLATAIQTQTAYAHGVKRVLMANQLVGAPNMAVIASLLADPMFEFHCMVDHPDNVAALGEFFAAHGLRLNVMIEYGVPGGRCGCRSEAEVLALADAVQAQPALALSGIEGYEGVIHGDQAIAGIKAFAASLVSLAVNLQDKGAFALDRPIVTASGSAWYDLIAEAFDAQAVRDRFLSVLRPGSYVVHDHGIYKDAQCCVLDRRAELSEALRPALEVWAHVQSMPEPGFAVIAMGKRDVAYDAGLPNPLLRYTPGVSSAPGDDVSACKVTAVMDQHAFMTVAADCELKVGDIISFGTSHPCLTFDKWRSGCLVDDDLRVIEPFHTCFEGHHHHHH	not soluble
MNSVSEPVPSHGKKPPKNVLAEHGGWKILRILLVSTYKDFRNERRAVLDLVENKLQPIASEKHVILQVEDFSWGSKAHLEEASSLYLIERLCREAVSSSSYFYLHFLGECSGYILDPNFTDQSFLRQHSISTGQSFSEVFLQLSGLQNEKSLFLYRNPSFHQELPFNVTHFIDGPVNRERAKYLTTMVRGEAPASKFIEYSVRTSGINNIHFKHIMFDELSGITKPIEAMVGKYLEKLPDGEAGIPSVEEFMNEYYSQLHVNQTIMSKIEYNLKSHKSILLVGDYCTGKTSILHRIQWKYRDAVIVQAKEKMSAIELRRAIEAKTNVILHDVEQKVVRYLLVDDIHLNFCENFKVKITLSQILQNFNCFAQIFSLLKQIFINFFQASKEAQQYLIGNEELVIVATSRKKKLEVDMNRIIIPHLEPEDILDELSFWLNGGEKEKSGVPSVKASNILKMSQQKRRRSIGTVEDGHQPDENIGWNSLKCRVIGTLGRIGSSDEKCAQLAQLSTLSVVEADMCLMESDGKGHLLIATLCYLTIVESGLNEMELRSLLILEYNLLPIAIRRNYKNLPFDYCPDEFGTTSCTQTLPLRWYFVLHRLGHLFMKIDGDSNHFVLPSACRRVVFKKYLKHPHNLEHFKKNFKEFLTNFSGKEWNRNRQIKMYL	not soluble
MGERKGQNFYYPPDFNYKTHKSLNGYHGTHALRERAKKIDQGILVIRFEMPFNIWCLGCHNHVGMGVRYNAEKKKIGMYYTTPLHEFRMKCHLCDNYYVIRTDPKNFDYELVEGCSRQELRFDPTDIAQIGAVDRGFTQKLAADAMFKKEHEAEDKDKAATEEGRVDKLEWIQERMRDDFTANSFLRAQFRNEKKSLNETRARDANLRDKLSIGTTQLLPETEEDRRIASMMTRYRDTKTHDDHLESSRDRIESRRIFRRPEETDTPSTSSGSSGGAVPSASERLKATMKAERDKRINASFSTAGTSSATQKLLGIKRKSASSLGVQIKKAAPENSSLQDEEPAVEKPNISNPISLIAQEYGNSSDDSD	not soluble
MGSDKIHHHHHHMCNISHSQVQYLATKGDGDLPAGTAAGTGRTRTFTLEEARIWVQKVSDIYQTPLVTRLKEPDGKIIITAQLKGGSAKTTTTMCLAQGLSLRGRKVLVLDLDPQASLSELCGLYAEKDVTPEDTVLPYIYDQEIEGGLEARVQSTYWDGIDVIPAHTELIGAEFHLPAMQKMRPGFRFWTVLRQGLEPLRKKYDYILMDTSPSLSYLNLNALMAADAMVMPMVPENLDFISSLSFWRLFSDVSKSFIKYEKDKKYDFVSLILSRVDYGRNSSAPIVRAWAQSAYENWLHSIEVPASSVMSTGALAFSTVFDISSTHSASKSLQRVRQPLIDYCRWVDEIYSEKWRSAQ	not soluble
MKLATLKNNTRDGQLVVVNRALDKAVVVSHIAATLQAALDNWSEISPKLAEVYQSLNNNEITDTLVFEQAACESPLPRAYQWADGSAYVNHVELVRKARNAEMPATFWTDPLMYQGGSDAFIGPRDDISIASEEYGIDFESEVAVITDDVPMGISVEQAANHIKLLMLVNDVSLRNLIPGELAKGFGFFASKPSSAFSPVAVTPDELGDAWDGKKLHLPLTTHLNETLFGQPNCGVDMTFDFPTIVAHAAKTRPLSTGCVIGSGTISNYDRSVGSSCLAEIRMLEIIADGKPTTPFMSFGDTVRIEMFDNEGASIFGSIDQKVVEYKAQ	not soluble
MSLNYLMKEKYIGLHKFELDTPCLVIDYEKLKHNLEIMQQHGFTWGIGIRPHCKTHKCTQIARLQLEYGAIGISAAKLSEAAALVSKRITNVLITSLIVSEAKYSRLFNCLKSAPDLMLVVDDKDNIRMLNKLGKSLNQPVHVLLDIDSGIGRTGINPEAALEYGHFINGMNWLKLKGIQCYAGHLQHIQNYEERKAFSLQVMEMASRIVKSFRDANLPCEILTGTGTGTFDIDVEASEVTEIQPGSYAVMDVEYGSIGSKNNPSSFQLFKNSMTLLTSVISSNRREHATVDAGTKSIYVDPHHKPHIISHPGLVYDWGGFGDEHGKVFSCEGGSHFLQNGDVLEIIVPHCDPTINLYDKFYITENNVVVDIWDIDMRGKSEGHHHHHH	soluble
MVTLTTNTEGATIYYTLDGSNPTNKSVRYNGRIVVNENSVIKAIAEKEGLTSSAISTFSFVIVNNEPVRIHDIQGKSHLSPYNGKKVYNVEGVVTALDKNGFYIEDNQPDNDPATSEGMYVYKKDANVAVGDLIQVDGVVEEYVGPGYAERFDTDLTTTEIKASRVVVIAKDQVLPAPIVLGENGVKIPDQIIDNDAFGLFDPNEDAIDFYESVEGMRVTMPTPKIIAPQKNGNLYVTVKNGGNKVVTKYGTPVLDENQLNPERLSVKVPRDYVAKVGDTFTGDITGVVGYDYGSFRIAPITELPSVVDGGFKQIGANIQPRLDKLEHHHHHH	soluble
MEILSDMWKEKITFIGINIDDEKSWKKFSQKNIKWITLNDPKEAFGLYIRYKANGIPFYVLVTPDGRISDIWYGYNKDSLSERLKQGVK	not soluble
MGSDKIHHHHHHMPARPNHLSNNIVFRDGVQVMRMDLHVHTEVSHDCQTRLRDIPAWLLRTNTRVIAITDHDEQRGGPELKRLVADLGLADRLSIIPGEEITTSEGELIGLFLEERIPPGLTPEATVQEIKAQGGLVLLQHGFDPLKRYRLRPEATQRIADQIDMVETFNSRLSRHHWNRVAAEWARARHLPVCAGSDAHTLRDIGEAWVETPFRLIHTPEQLLQALDEGVVGGRWTHPVYAYGLKQWRNLNGRFQRKD	not soluble
MSLAYIYLMRHAKTVMNIEGRWQGINDSDIPEESLRHFEERIRFLAGKNIKAIYSSCLVRSIKSATVAASILGIDHIETVRGFNERDLGLMEGKTNDEIREKFGITDIYIASRAIESIPMVEPWPKFVGRVMATLQAFSGRDGSLVITHGGVMRAIYNTLTGSNERRVIFDNGYILKLEFSGSWRISEIIGQEGHHHHHH	soluble
MAESSVTFTISTDGGGKINVIYDGSHKTNATDSSVNSESVTPCESLDTTKESEMLKAGLRRRAPSISTESSVTFSSISDFEDLNLRCSTPLVCDDDTNSNSDASFASCVSEVSEMSIKTTSSQETVTSASGLKESKPMEKMEEKREVRMKSYEQVNKERYGGWTEVVNWRAAKKPQSVAPSQSSTKKTLSNNGTTTDHGITSASRRTPNSTHVASKPQLNTRATSVQGSAPSSGSKSRIPSLANRQVYNNSPQLFHPFPPSRCNSSNGSYASTVTASPSVASYSPNPSQPPPPVAVAKLNMKMTITTDSNGKMSVHFSNSNSSESWSINGLLGNSDKINVSKMF	not soluble
MGHHHHHHSHMRTYSDKNELKEEVLKSYKKYIAEFNDIPEKLKDLRIDEVDRTPAENLAYQVGWTTLILKWESDEQSGLEVKTPTETFKWNQLGELYQHFTETYASLTIKELTAQLNDNVDAIGNMIDSMSDEVLFKPHMRNWADSATKNAVWEVYKFIHINTVAPFGTFRTKIRKWKKVALK	soluble
MGHHHHHHSHMIKYYNRKTKQYEIEKVAGENYLNWTYSSPIGMSFLEALIKKKAFSSIYGSFCDSKISKGKVKKFIDSFDIDILESEKKPEAFKSFNDFFTRKLTKEARPFSTNKEILISPGDGRLLVYENIDLDNLVEIKGMGYSLKELIKDEKISSKYKNGICMILRLCPTDYHRFHFVDSGVCSATSKIKGSYYSVNPIALNKVKRLFCENKREWSILKSDNFKDILYIEVGATCVGSIIQTYKENTKVNKGDEKGYFKFGGSTVVLFFEKDSVKIDEDILEQTRLGYETKVFMGESIGKK	soluble
MSLSEYLGNKEAKQQMLKTIIKDLHQGKDFNQVKADFQNLIKDIDASEIANMEQALIGEGMNPEEITKLCDVHAAVFRDALEENEKPNLILGHPMYTIKHENEEIKKALEELDNYFSSNQMDAFKDRLSFFRDNLDRHYSKKENILFPYLERHNITGPPSVMWSVDDEIRDMGKILLTRVKEGDAGAIKTAYETMKNKISEMIFKEENILTPMLLETLTEEEWAEIKQEDEEFGVVFSKPHGNFWQPKAVTTKNISFEPTGEALSLDTGFLTLEQINTILTNIPIDITFVDKDDTVRYFSQGRERIFVRTKSIIGRKVQNCHPPDSVHMVEKILSDFKHGKHSTAEFWLELAEKFIHIRYFALRDEQGHYVGTMEVSQDVTGIRSLEGERRLLQYEDEGHHHHHH	soluble
MTGFAPQAGLPSHSVQVADHFDGNSPRGSPMSSGGHPVDRNRGLQPQKEAFSGPAAGKPFHPQALSKYSRHYSPEDELSAEAQPIAAYKIVSQSNKQLLAGSVSVTSLSSRTTELATADPFALAPFPSKAGKQKP	soluble
MSLSDAAISCSWKPFFRELATRLLDYEDRQPELLAALRDASISINHDEGEPLREVDPFTFFSLVLKHTSDATALPLFARVGAALGVQAPSPTDLIGVPWSNPMNAWFFAYRSQRQPGDVPLLWRLARQAVAGILDAQTFEDALKIRKVALPKLTQGLFWLNPERFLALNAVNVPYLQARGLQAAGQVQTLAEYETVLEAAHKLNPDFAALSHRAWLNSQTAALEGNHFPFARYQADAQEFAGDKVKGNLVLDRRYAPLLLDLMAGEWETLKPSRSPYSGREQLAVKVALGGGVKTDGGAFARALLFADDSGFEYVPFSAGLTLEAGLPDGRGDGPRQALQEPARQHTLLTALNAPLPAGLEATLTLNTDFGALFLLPLGPGREAEAAQQLQQYMSGVGRSRRLRVGLSLLPEHLESDKFPELLDAALTYLDALVDLLDGLMRPSEETSTEEIGVPGTRPVAPTPAAFVPVPGVPLNQILYGPPGTGKTYRVVDEALSVLDPAFLSAHPGSEGRAARKARYDELAAQGQISFVTFHQSFGYEDFIEGIKPVMSGGALSYVLQDGVFLEAVRSAGGALAPAAPEAGPSTETQPLVRPDAQVWRMYIDGTAPVSRIRDLSLGRGELRMGSYGKPPRDLTQAGVEDLSGRQLLFKESVRVGDLMLLATAADRIGAVGVVTGDYRFDPHSDPTFATDYAHTRSVKWLAQDLNVGATETLGKSFAPPTLQRVADVTPAQVLQALGVSTAGGETAHAPTPRPHVLIIDEINRGNISKIFGELITLLESGKRTGAPEALTVTLPLSRRPLSVPQSLYVIGTMNTADRSLTLLDAALRRRFVFRPVWPQPEVLPVLDLGGTALDLRKFLHVINDRIERLLSREQVIGHAYLLGLPATLGGVSSALRERILPLLEEYFFEDWSKIREVLGDESKAEALQFIHRSGSGPELRYRLNPEAFENIEAFTGVYAGVSDQDFPFDEGHHHHHH	soluble
MAHHHHHHMLLSDAEAKITAVLKSLLDTPRTTYEVENLYQLNCERIAAVRAALADMSGDYVDQLCERCGEAEKQVQAKRAAGVASTAAADNAFSLDFALEEAEGQNEAEIESAISAAAHGSRRPKKSSGKEKSKKKEGEERHKKKEKRTLDDEPLVAPLPAGGGSCENNAADKATSSPSTRWVVLSRDDDLTSSEVLPALSTSDRVKCEAVPNTPLARVFFTEEVTRDGASCQCAVELYRCVVIAMRYGEPQLSWAECEKMMQSQVAAASKAGTIEDEGFDSRSAKRAGARSPKTSSDGDGEGAEDDSTSLVEEMTLSEQLIAQYDQAQQAEEEEEDADTLTLPRDISERFQQRLHGFTDEVWVILLCHGGYFAGGVFARGTCITHKAFQRYVVRKKQGGKQSSNAKDAGSYNSVGSQIRAVQEVKWRVDVRDILLDWMPYIQAASFILYAAPGPQNRAVLTDFSLLPAVASVGGRKGVSPIQLKDPRVSRVPLTTHRPTFEEVRRIYGVCSRCSLLYVRQEEAQERNTN	not soluble
